Test results: article PMC5592140 (Cellular signalling, 2017)
Read-outs that look alike come from different tables or passages of the source.

B1: FLAG-CHIP (carboxy-terminus of Hsc70-interacting protein) (enzyme, human, UniProt Q9UNE7 1-303, looked up)
chain: MKGKEEKEGGARLGAGGGSPEKSPSAQELKEQGNRLFVGRKYPEAAACYGRAITRNPLVAVYYTNRALCYLKMQQHEQALADCRRALELDGQSVKAHFFLGQCQLEMESYDEAIANLQRAYSLAKEQRLNFGDDIPSALRIAKKKRWNSIEERRIHQESELHSYLSRLIAAERERELEECQRNHEGDEDDSHVRAQQACIEAKHDKYMADMDELFSQVDEKRKKRDIPDYLCGKISFELMREPCITPSGITYDRKDIEEHLQRVGHFDPVTRSPLTQEQLIPNLAMKEVIDAFISENGWVEDY
B2: His-MLK3 (Mixed Lineage Kinase 3) (enzyme, human, UniProt Q16584 1-847, looked up)
chain: MEPLKSLFLKSPLGSWNGSGSGGGGGGGGGRPEGSPKAAGYANPVWTALFDYEPSGQDELALRKGDRVEVLSRDAAISGDEGWWAGQVGGQVGIFPSNYVSRGGGPPPCEVASFQELRLEEVIGIGGFGKVYRGSWRGELVAVKAARQDPDEDISVTAESVRQEARLFAMLAHPNIIALKAVCLEEPNLCLVMEYAAGGPLSRALAGRRVPPHVLVNWAVQIARGMHYLHCEALVPVIHRDLKSNNILLLQPIESDDMEHKTLKITDFGLAREWHKTTQMSAAGTYAWMAPEVIKASTFSKGSDVWSFGVLLWELLTGEVPYRGIDCLAVAYGVAVNKLTLPIPSTCPEPFAQLMADCWAQDPHRRPDFASILQQLEALEAQVLREMPRDSFHSMQEGWKREIQGLFDELRAKEKELLSREEELTRAAREQRSQAEQLRRREHLLAQWELEVFERELTLLLQQVDRERPHVRRRRGTFKRSKLRARDGGERISMPLDFKHRITVQASPGLDRRRNVFEVGPGDSPTFPRFRAIQLEPAEPGQAWGRQSPRRLEDSSNGERRACWAWGPSSPKPGEAQNGRRRSRMDEATWYLDSDDSSPLGSPSTPPALNGNPPRPSLEPEEPKRPVPAERGSSSGTPKLIQRALLRGTALLASLGLGRDLQPPGGPGRERGESPTTPPTPTPAPCPTEPPPSPLICFSLKTPDSPPTPAPLLLDLGIPVGQRSAKSPRREEEPRGGTVSPPPGTSRSAPGTPGTPRSPPLGLISRPRPSPLRSRIDPWSFVSAGPRPSPLPSPQPAPRRAPWTLFPDSDPFWDSPPANPFQGGPQDCRAQTKDMGAQAPWVPEAGP

Assays:
[1] = target: T1, GST-MLK4β (Mixed Lineage Kinase 4β) (human, UniProt Q5TCX8-1 1-1036); assay: pull-down
[2] = target: T1, GST-MLK4β (Mixed Lineage Kinase 4β); assay: pull-down; remark: listed apart in the source

T1 sequence (Q5TCX8 whole entry): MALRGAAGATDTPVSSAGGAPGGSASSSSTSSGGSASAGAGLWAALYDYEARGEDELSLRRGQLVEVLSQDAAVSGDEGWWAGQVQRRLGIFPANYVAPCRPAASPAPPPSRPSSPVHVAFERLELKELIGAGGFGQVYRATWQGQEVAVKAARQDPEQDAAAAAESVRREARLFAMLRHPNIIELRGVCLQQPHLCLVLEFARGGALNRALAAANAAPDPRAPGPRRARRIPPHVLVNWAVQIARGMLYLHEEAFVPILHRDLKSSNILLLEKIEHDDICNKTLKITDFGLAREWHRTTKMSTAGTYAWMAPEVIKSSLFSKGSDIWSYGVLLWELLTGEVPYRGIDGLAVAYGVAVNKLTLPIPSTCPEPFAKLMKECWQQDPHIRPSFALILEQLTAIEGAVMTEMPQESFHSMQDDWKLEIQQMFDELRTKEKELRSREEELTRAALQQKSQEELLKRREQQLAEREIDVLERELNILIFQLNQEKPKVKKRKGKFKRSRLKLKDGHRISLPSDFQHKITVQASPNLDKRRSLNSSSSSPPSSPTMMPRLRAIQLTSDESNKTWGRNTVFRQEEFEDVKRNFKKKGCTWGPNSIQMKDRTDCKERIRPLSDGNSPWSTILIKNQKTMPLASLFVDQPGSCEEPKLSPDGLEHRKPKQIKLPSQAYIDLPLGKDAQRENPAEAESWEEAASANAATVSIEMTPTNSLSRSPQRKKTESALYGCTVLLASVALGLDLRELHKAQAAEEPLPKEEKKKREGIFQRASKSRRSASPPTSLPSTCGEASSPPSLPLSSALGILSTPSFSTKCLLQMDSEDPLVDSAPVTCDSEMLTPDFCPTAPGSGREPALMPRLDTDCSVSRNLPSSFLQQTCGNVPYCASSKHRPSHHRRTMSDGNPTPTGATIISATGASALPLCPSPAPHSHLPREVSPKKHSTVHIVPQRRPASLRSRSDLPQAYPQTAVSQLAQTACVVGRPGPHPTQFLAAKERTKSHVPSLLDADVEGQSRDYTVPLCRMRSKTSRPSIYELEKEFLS

| Binder | binding result [1] | binding result [2] |
| --- | --- | --- |
| B1 | binds |  |
| B2 |  | binds |
